Measurements taken from patent publication US20200087373A1 (UNIVERSITY OF COPENHAGEN, published 2020).
Ends that are not written are not given here. * marks the point of attachment. C18 diacid = O=C(O)CCCCCCCCCCCCCCCCC(=O)*; C16 diacid = O=C(O)CCCCCCCCCCCCCCC(=O)*; C14 diacid = O=C(O)CCCCCCCCCCCCC(=O)*; Palmitoyl = CCCCCCCCCCCCCCCC(=O)*

T1: human GIP receptor (human, UniProt P48546 22-466)
T1 construct: whole, on cells; also called hGIPR
T1 sequence (looked up): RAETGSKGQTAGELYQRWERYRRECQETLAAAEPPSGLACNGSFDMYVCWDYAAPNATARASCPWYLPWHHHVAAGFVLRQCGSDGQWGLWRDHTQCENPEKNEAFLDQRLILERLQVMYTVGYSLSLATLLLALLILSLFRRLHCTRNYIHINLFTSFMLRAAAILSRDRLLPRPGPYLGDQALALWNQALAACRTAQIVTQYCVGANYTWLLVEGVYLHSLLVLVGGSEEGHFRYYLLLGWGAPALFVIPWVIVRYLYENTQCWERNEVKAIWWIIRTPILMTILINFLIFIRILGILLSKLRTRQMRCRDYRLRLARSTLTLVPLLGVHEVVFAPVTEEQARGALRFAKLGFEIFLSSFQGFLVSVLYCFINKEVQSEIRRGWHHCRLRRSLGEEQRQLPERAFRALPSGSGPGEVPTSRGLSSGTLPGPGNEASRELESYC


Key:
[1] = biological target: T1, human GIP receptor; assay: 125I-hGIP competition binding, COS-7/hGIPR, 2% HSA;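 also: nonspecific binding defined as radioligand binding to untransfected cells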
Protocol: (§1) After incubation, the cells were washed twice in ice-cold binding buffer (+/−2% HSA) and lysed using 200 mM NaOH with 1% SDS for 30 min. Nonspecific binding was determined as the binding of radioactive ligand to untransfected cells.

[2] = biological target: T1, human GIP receptor; assay: 125I-hGIP competition binding, COS-7/hGIPR, 0.1% casein;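 also: nonspecific binding defined as radioligand binding measured on untransfected cells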
Protocol: as §1

[3] = biological target: T1, human GIP receptor; assay: 125I-hGIP competition binding, COS-7 cells expressing hGIPR;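 also: nonspecific binding taken as radioligand bound by untransfected cells, binding buffer with or without 2% HSA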
Protocol: as §1

[4] = biological target: T1, human GIP receptor; assay: IC50 with 2% HSA over IC50 with 0.1% casein, 125I-hGIP competition, COS-7/hGIPR
Protocol: as §1

| Binder | IC50 [1] | logIC50 [1] | IC50 [2] | logIC50 [2] | IC50 [3] | log IC50 [3] | Fold change HSA (2%)/Casein (0.1%) [4] |
| --- | --- | --- | --- | --- | --- | --- | --- |
| {C18 diacid}-TFISDYSIAMDKIHQQDFVNWLLAQK-NH2 (SMILES CC[C@H](C)[C@H](NC(=O)[C@H](CO)NC(=O)[C@H](Cc1ccc(O)cc1)NC(=O)[C@H](CC(=O)O)NC(=O)[C@H](CO)NC(=O)[C@@H](NC(=O)[C@H](Cc1ccccc1)NC(=O)[C@@H](NC(=O)CCCCCCCCCCCCCCCCC(=O)O)[C@@H](C)O)[C@@H](C)CC)C(=O)N[C@@H](C)C(=O)N[C@@H](CCSC)C(=O)N[C@@H](CC(=O)O)C(=O)N[C@@H](CCCCN)C(=O)N[C@H](C(=O)N[C@@H](Cc1c[nH]cn1)C(=O)N[C@@H](CCC(N)=O)C(=O)N[C@@H](CCC(N)=O)C(=O)N[C@@H](CC(=O)O)C(=O)N[C@@H](Cc1ccccc1)C(=O)N[C@H](C(=O)N[C@@H](CC(N)=O)C(=O)N[C@@H](Cc1c[nH]c2ccccc12)C(=O)N[C@@H](CC(C)C)C(=O)N[C@@H](CC(C)C)C(=O)N[C@@H](C)C(=O)N[C@@H](CCC(N)=O)C(=O)N[C@@H](CCCCN)C(N)=O)C(C)C)[C@@H](C)CC) [AT138 [hGIP(5-30)NH2-C18diacid/5]] | 10100 nM | -5 log M | 2640 nM | -5.6 log M | 2640 nM | -5.6 log M | 3.8 fold |
| Palmitoyl-TFISDYSIAMDRIHQQDFVNWLLAQR-NH2 (SMILES CCCCCCCCCCCCCCCC(=O)N[C@H](C(=O)N[C@@H](Cc1ccccc1)C(=O)N[C@H](C(=O)N[C@@H](CO)C(=O)N[C@@H](CC(=O)O)C(=O)N[C@@H](Cc1ccc(O)cc1)C(=O)N[C@@H](CO)C(=O)N[C@H](C(=O)N[C@@H](C)C(=O)N[C@@H](CCSC)C(=O)N[C@@H](CC(=O)O)C(=O)N[C@@H](CCCNC(=N)N)C(=O)N[C@H](C(=O)N[C@@H](Cc1c[nH]cn1)C(=O)N[C@@H](CCC(N)=O)C(=O)N[C@@H](CCC(N)=O)C(=O)N[C@@H](CC(=O)O)C(=O)N[C@@H](Cc1ccccc1)C(=O)N[C@H](C(=O)N[C@@H](CC(N)=O)C(=O)N[C@@H](Cc1c[nH]c2ccccc12)C(=O)N[C@@H](CC(C)C)C(=O)N[C@@H](CC(C)C)C(=O)N[C@@H](C)C(=O)N[C@@H](CCC(N)=O)C(=O)N[C@@H](CCCNC(=N)N)C(N)=O)C(C)C)[C@@H](C)CC)[C@@H](C)CC)[C@@H](C)CC)[C@@H](C)O) [AT135 [hGIP(5-30)NH2[K16R; K30R]-C16/5]] | 977 nM | -6 log M | 5940 nM | -5.2 log M | 5940 nM | -5.2 log M | 0.2 fold |
| {C16 diacid}-TFISDYSIAMDKIHQQDFVNWLLAQK-NH2 (SMILES CC[C@H](C)[C@H](NC(=O)[C@H](CO)NC(=O)[C@H](Cc1ccc(O)cc1)NC(=O)[C@H](CC(=O)O)NC(=O)[C@H](CO)NC(=O)[C@@H](NC(=O)[C@H](Cc1ccccc1)NC(=O)[C@@H](NC(=O)CCCCCCCCCCCCCCC(=O)O)[C@@H](C)O)[C@@H](C)CC)C(=O)N[C@@H](C)C(=O)N[C@@H](CCSC)C(=O)N[C@@H](CC(=O)O)C(=O)N[C@@H](CCCCN)C(=O)N[C@H](C(=O)N[C@@H](Cc1c[nH]cn1)C(=O)N[C@@H](CCC(N)=O)C(=O)N[C@@H](CCC(N)=O)C(=O)N[C@@H](CC(=O)O)C(=O)N[C@@H](Cc1ccccc1)C(=O)N[C@H](C(=O)N[C@@H](CC(N)=O)C(=O)N[C@@H](Cc1c[nH]c2ccccc12)C(=O)N[C@@H](CC(C)C)C(=O)N[C@@H](CC(C)C)C(=O)N[C@@H](C)C(=O)N[C@@H](CCC(N)=O)C(=O)N[C@@H](CCCCN)C(N)=O)C(C)C)[C@@H](C)CC) [AT137 [hGIP(5-30)NH2-C16diacid/5]] | 555 nM | -6.3 log M | 286 nM | -6.5 log M | 286 nM | -6.5 log M | 1.9 fold |
| {C14 diacid}-TFISDYSIAMDKIHQQDFVNWLLAQK-NH2 (SMILES CC[C@H](C)[C@H](NC(=O)[C@H](CO)NC(=O)[C@H](Cc1ccc(O)cc1)NC(=O)[C@H](CC(=O)O)NC(=O)[C@H](CO)NC(=O)[C@@H](NC(=O)[C@H](Cc1ccccc1)NC(=O)[C@@H](NC(=O)CCCCCCCCCCCCC(=O)O)[C@@H](C)O)[C@@H](C)CC)C(=O)N[C@@H](C)C(=O)N[C@@H](CCSC)C(=O)N[C@@H](CC(=O)O)C(=O)N[C@@H](CCCCN)C(=O)N[C@H](C(=O)N[C@@H](Cc1c[nH]cn1)C(=O)N[C@@H](CCC(N)=O)C(=O)N[C@@H](CCC(N)=O)C(=O)N[C@@H](CC(=O)O)C(=O)N[C@@H](Cc1ccccc1)C(=O)N[C@H](C(=O)N[C@@H](CC(N)=O)C(=O)N[C@@H](Cc1c[nH]c2ccccc12)C(=O)N[C@@H](CC(C)C)C(=O)N[C@@H](CC(C)C)C(=O)N[C@@H](C)C(=O)N[C@@H](CCC(N)=O)C(=O)N[C@@H](CCCCN)C(N)=O)C(C)C)[C@@H](C)CC) [AT136 [hGIP(5-30)NH2-C14diacid/5]] | 713 nM | -6.1 log M | 45 nM | -7.3 log M | 45.4 nM | -7.3 log M | 15.7 fold |
| TFISDYSIAMDK(C14 diacid)IHQQDFVNWLLAQK-NH2 (N-terminus assumed; SMILES CC[C@H](C)[C@H](NC(=O)[C@H](CO)NC(=O)[C@H](Cc1ccc(O)cc1)NC(=O)[C@H](CC(=O)O)NC(=O)[C@H](CO)NC(=O)[C@@H](NC(=O)[C@H](Cc1ccccc1)NC(=O)[C@@H](N)[C@@H](C)O)[C@@H](C)CC)C(=O)N[C@@H](C)C(=O)N[C@@H](CCSC)C(=O)N[C@@H](CC(=O)O)C(=O)N[C@@H](CCCCNC(=O)CCCCCCCCCCCCC(=O)O)C(=O)N[C@H](C(=O)N[C@@H](Cc1c[nH]cn1)C(=O)N[C@@H](CCC(N)=O)C(=O)N[C@@H](CCC(N)=O)C(=O)N[C@@H](CC(=O)O)C(=O)N[C@@H](Cc1ccccc1)C(=O)N[C@H](C(=O)N[C@@H](CC(N)=O)C(=O)N[C@@H](Cc1c[nH]c2ccccc12)C(=O)N[C@@H](CC(C)C)C(=O)N[C@@H](CC(C)C)C(=O)N[C@@H](C)C(=O)N[C@@H](CCC(N)=O)C(=O)N[C@@H](CCCCN)C(N)=O)C(C)C)[C@@H](C)CC) [AT139 [hGIP(5-30)NH2-C14diacid/16]] | 401 nM | -6.4 log M | 153 nM | -6.8 log M | 153 nM | -6.8 log M | 2.6 fold |
| TFISDYSIAMDK(C16 diacid)IHQQDFVNWLLAQK-NH2 (N-terminus assumed; SMILES CC[C@H](C)[C@H](NC(=O)[C@H](CO)NC(=O)[C@H](Cc1ccc(O)cc1)NC(=O)[C@H](CC(=O)O)NC(=O)[C@H](CO)NC(=O)[C@@H](NC(=O)[C@H](Cc1ccccc1)NC(=O)[C@@H](N)[C@@H](C)O)[C@@H](C)CC)C(=O)N[C@@H](C)C(=O)N[C@@H](CCSC)C(=O)N[C@@H](CC(=O)O)C(=O)N[C@@H](CCCCNC(=O)CCCCCCCCCCCCCCC(=O)O)C(=O)N[C@H](C(=O)N[C@@H](Cc1c[nH]cn1)C(=O)N[C@@H](CCC(N)=O)C(=O)N[C@@H](CCC(N)=O)C(=O)N[C@@H](CC(=O)O)C(=O)N[C@@H](Cc1ccccc1)C(=O)N[C@H](C(=O)N[C@@H](CC(N)=O)C(=O)N[C@@H](Cc1c[nH]c2ccccc12)C(=O)N[C@@H](CC(C)C)C(=O)N[C@@H](CC(C)C)C(=O)N[C@@H](C)C(=O)N[C@@H](CCC(N)=O)C(=O)N[C@@H](CCCCN)C(N)=O)C(C)C)[C@@H](C)CC) [AT140 [hGIP(5-30)NH2-C16diacid/16]] | 3280 nM | -5.5 log M | 2160 nM | -5.7 log M | 2160 nM | -5.7 log M | 1.5 fold |
